According to US12697350B2, “Methods and compositions for treating a premature termination codon-mediated disorder” (Tevard Biosciences, Inc., priority 2019, dated 2026):

Test system: Neuro-2a cells
Assay type: cell-based, mouse
Description: FIG. 23 is a graph depicting cell viability from FIG. 22 as measured by flow cytometry at ~48 hours post transfection. Neuro-2a cells were transfected with an expression construct containing the EGFP-R96X-TGA reporter (“GFP-PTC”) and either (i) transfected with an expression construct including the ArgTCA suppressor tRNA #115 (SEQ ID NO: 18) at the indicated copy number on the same construct, or (ii) treated with ataluren at the indicated concentration, (iii) treated with gentamicin at the indication concentration, or (iv) treated with G418 at the indicated concentration. For all experimental conditions, cell culture medium was replaced with fresh medium ~6 hour after transfection and the indicated drugs at the indicated concentrations were added at this point. A reporter containing wildtype GFP without a PTC (“WT-GFP”) was used as a control. “Mock” indicates mock transfected cells. “4×TCG” indicates cells transfected with an expression construct that contains four copies of a wild-type Arg-tRNA with a TCG anticodon and the EGFP-R96X-TGA reporter. Cell viability was assessed by flow cytometry using 7-Amino Actinomycin D (7-AAD), a membrane impermeant dye that is generally excluded from viable cells.
FIG. 34 is a graph depicting cell viability from FIG. 33 as measured by flow cytometry at ~48 hours post transfection. […] Cell viability was assessed by flow cytometry using 7-Amino Actinomycin D (7-AAD), a membrane impermeant dye that is generally excluded from viable cells.
FIG. 36 is a graph depicting cell viability from FIG. 35 as measured by flow cytometry at ~48 hours post transfection. […] Cell viability was assessed by flow cytometry using 7-Amino Actinomycin D (7-AAD), a membrane impermeant dye that is generally excluded from viable cells. […]

B1: tRNA-Arg-TCT-2-1-TCA-SUP_no intron (nucleic acid)
chain: GGCTCCGTGGCGCAATGGATAGCGCATTGGACTTCAAATTCAAAGGTTCCGGGTTCGAGTCCCGGCGGAGTCG
modifications: chemistry not fully specified
  cell viability: not accompanied by a decrease in cell viability
